Assay results published in patent US20130344055A1, “ANTIMICROBIAL AGENTS” (priority 2010, published 2013).

Experiments:
Type in all cases: cell-based
Pseudomonas bacteria = experiment: In vitro antibacterial activity of KZ144 and EL188 fusion variants; details: with EDTA 0.5 mM; 10^6 cells/ml; 30 minutes at RT
Procedure: Exponential growing Gram-negative bacterial cells (OD600 nm=0.6) were 100-fold diluted to a final density of about 10^6 cells/ml in 5 mM HEPES pH 7.4 and incubated for 30 minutes at room temperature without shaking with the different modified OBPgpLYS variants (in Elution Buffer in an end concentration of 1500 nM). After incubation cell suspensions and as a control untreated bacterial cells without any added modified OBPgpLYS variant were diluted three times (respectively 10^5-10^4-10^3 cells/ml) in 1× concentrated PBS buffer and 100 μl of each dilution was plated out on LB-medium. […] All samples were replicated in threefold. Averages +/− standard deviations are represented.
The purification of the fusion proteins and the antimicrobial activity assay was performed as described in Example 1.

Staphylococcus bacteria = experiment: In vitro antibacterial activity of Lysostaphin and LysK fusion variants; details: LysK variants; with EDTA 0.5 mM; 10^6 cells/ml; 30 minutes at RT
Streptococcus bacteria = experiment: In vitro antibacterial activity of Cpl1 fusion variants; details: with EDTA 0.5 mM; 10^6 cells/ml; 30 minutes at RT

Row | Molecule | Average log reduction, Pseudomonas (Pseudomonas bacteria) | Average log reduction, Staphylococcus (Staphylococcus bacteria) | further results
1 | EL188-PK: EL188 fusion variant with one peptide stretch, PK (protein) MNFRTKNGYRDLQALVKELGLYTGQIDGVWGKGTSSSTETLLRGYAEVVGKNTGGIGLPTTSDASGYNVITALQRNLAFLGLYSLTVDGIWGNGTLSGDKAFEVYKERYRTPTYDIAWSGKVSPAFTAKVKDWCGVHVPNHRAPHWLMACMAFETGQTFSPSIKNAAGSEAYGLIQFMSPAANDLNVPLSVIRSMDQLTQLDLVFKYFEMWMKRGKRYTQLEDFYLTIFHPASVGKKADEVLFLQGSKAYLQNKGFDVDKDGKITLGEISSTLYTTYYKGLLPENRHVISYKRKKRKKRK | + (+: 1 log) | – | –
2 | KZ144: Pseudomonas aeruginosa bacteriophage endolysin KZ144 (phage phiKZ) (protein, Pseudomonas aeruginosa phage KZ) KVLRKGDRGDEVCQLQTLLNLCGYDVGKPDGIFGNNTFNQVVKFQKDNCLDSDGIVGKNTWAELFSKYSPPIPYKTIPMPTANKSRAAATPVMNAVENATGVRSQLLLTFASIESAFDYEIKAKTSSATGWFQFLTGTWKTMIENYGMKYGVLTDPTGALRKDPRISALMGAELIKENMNILRPVLKREPTDTDLYLAHFFGPGAARRFLTTGQNELAATHFPKEAQANPSIFYNKDGSPKTIQEVYNLMDGKVAAHRK | +/− (+/−: <1 log) | – | –
3 | KZ144-PK: KZ144 fusion variant with one peptide stretch, PK (protein) MKVLRKGDRGDEVCQLQTLLNLCGYDVGKPDGIFGNNTFNQVVKFQKDNCLDSDGIVGKNTWAELFSKYSPPIPYKTIPMPTANKSRAAATPVMNAVENATGVRSQLLLTFASIESAFDYEIKAKTSSATGWFQFLTGTWKTMIENYGMKYGVLTDPTGALRKDPRISALMGAELIKENMNILRPVLKREPTDTDLYLAHFFGPGAARRFLTTGQNELAATHFPKEAQANPSIFYNKDGSPKTIQEVYNLMDGKVAAHRKKRKKRKKRK | + (+: 1 log) | – | –
4 | PK2-Cecropin A (A. aegyptii)-LysK: PK2, then Cecropin A (A. aegyptii), N-terminally fused to LysK (protein) MKRKKRKKRKKRKKRKKRKGGLKKLGKKLEGAGKRVFNAAEKALPVVAGAKALRKAKTQAEINKRLDAYAKGTVDSPYRVKKATSYDPSFGVMEAGAIDADGYYHAQCQDLITDYVLWLTDNKVRTWGNAKDQIKQSYGTGFKIHENKPSTVPKKGWIAVFTSGSYEQWGHIGIVYDGGNTSTFTILEQNWNGYANKKPTKRVDNYYGLTHFIEIPVKAGTTVKKETAKKSASKTPAPKKKATLKVSKNHINYTMDKRGKKPEGMVIHNDAGRSSGQQYENSLANAGYARYANGIAHYYGSEGYVWEAIDAKNQIAWHTGDGTGANSGNFRFAGIEVCQSMSASDAQFLKNEQAVFQFTAEKFKEWGLTPNRKTVRLHMEFVPTACPHRSMVLHTGFNPVTQGRPSQAIMNKLKDYFIKQIKNYMDKGTSSSTVVKDGKTSSASTPATRPVTGSWKKNQYGTWYKPENATFVNGNQPIVTRIGSPFLNAPVGGNLPAGATIVYDEVCIQAGHIWIGYNAYNGNRVYCPVRTCQGVPPNQIPGVAWGVFK | – | +++ (+++: 4 or more logs) | –
5 | EL188: Pseudomonas aeruginosa bacteriophage endolysin EL188 (phage EL) (protein, Pseudomonas aeruginosa phage EL) MNFRTKNGYRDLQALVKELGLYTGQIDGVWGKGTSSSTETLLRGYAEVVGKNTGGIGLPTTSDASGYNVITALQRNLAFLGLYSLTVDGIWGNGTLSGLDKAFEVYKERYRTPTYDIAWSGKVSPAFTAKVKDWCGVHVPNHRAPHWLMACMAFETGQTFSPSIKNAAGSEAYGLIQFMSPAANDLNVPLSVIRSMDQLTQLDLVFKYFEMWMKRGKRYTQLEDFYLTIFHPASVGKKADEVLFLQGSKAYLQNKGFDVDKDGKITLGEISSTLYTTYYKGLLPENRHVISY | +/− (+/−: <1 log) | – | –
6 | Cecropin A (A. aegyptii)-LysK: LysK fusion variant with one peptide stretch, Cecropin A (A. aegyptii) (protein) MGGLKKLGKKLEGAGKRVFNAAEKALPVVAGAKALRKAKTQAEINKRLDAYAKGTVDSPYRVKKATSYDPSFGVMEAGAIDADGYYHAQCQDLITDYVLWLTDNKVRTWGNAKDQIKQSYGTGFKIHENKPSTVPKKGWIAVFTSGSYEQWGHIGIVYDGGNTSTFTILEQNWNGYANKKPTKRVDNYYGLTHFIEIPVKAGTTVKKETAKKSASKTPAPKKKATLKVSKNHINYTMDKRGKKPEGMVIHNDAGRSSGQQYENSLANAGYARYANGIAHYYGSEGYVWEAIDAKNQIAWHTGDGTGANSGNFRFAGIEVCQSMSASDAQFLKNEQAVFQFTAEKFKEWGLTPNRKTVRLHMEFVPTACPHRSMVLHTGFNPVTQGRPSQAIMNKLKDYFIKQIKNYMDKGTSSSTVVKDGKTSSASTPATRPVTGSWKKNQYGTWYKPENATFVNGNQPIVTRIGSPFLNAPVGGNLPAGATIVYDEVCIQAGHIWIGYNAYNGNRVYCPVRTCQGVPPNQIPGVAWGVFK | – | ++ (++: 2-3 log) | –
7 | Cpl1: endolysin Cpl-1 (protein, Streptococcus pneumoniae Phage Cpl-1) MVKKNDLFVDVSSHNGYDITGILEQMGTTNTIIKISESTTYLNPCLSAQVEQSNPIGFYHFARFGGDVAEAEREAQFFLDNVPMQVKYLVLDYEDDPSGDAQANTNACLRFMQMIADAGYKPIYYSYKPFTHDNVDYQQILAQFPNSLWIAGYGLNDGTANFEYFPSMDGIRWWQYSSNPFDKNIVLLDDEEDDKPKTAGTWKQDSKGWWFRRNNGSFPYNKWEKIGGVWYYFDSKGYCLTSEWLKDNEKWYYLKDNGAMATGWVLVGSEWYYMDDSGAMVTGWVKYKNNWYYMTNERGNMVSNEFIKSGKGWYFMNTNGELADNPSFTKEPDGLITVA | – | – | Average log reduction, Streptococcus (Streptococcus bacteria): + (+: 1 log)
8 | PK2-LysK: LysK fusion variant with one peptide stretch, PK2 (protein) MKRKKRKKRKKRKKRKKRKAKTQAEINKRLDAYAKGTVDSPYRVKKATSYDPSFGVMEAGAIDADGYYHAQCQDLITDYVLWLTDNKVRTWGNAKDQIKQSYGTGFKIHENKPSTVPKKGWIAVFTSGSYEQWGHIGIVYDGGNTSTFTILEQNWNGYANKKPTKRVDNYYGLTHFIEIPVKAGTTVKKETAKKSASKTPAPKKKATLKVSKNHINYTMDKRGKKPEGMVIHNDAGRSSGQQYENSLANAGYARYANGIAHYYGSEGYVWEAIDAKNQIAWHTGDGTGANSGNFRFAGIEVCQSMSASDAQFLKNEQAVFQFTAEKFKEWGLTPNRKTVRLHMEFVPTACPHRSMVLHTGFNPVTQGRPSQAIMNKLKDYFIKQIKNYMDKGTSSSTVVKDGKTSSASTPATRPVTGSWKKNQYGTWYKPENATFVNGNQPIVTRIGSPFLNAPVGGNLPAGATIVYDEVCIQAGHIWIGYNAYNGNRVYCPVRTCQGVPPNQIPGVAWGVFK | – | ++ (++: 2-3 log) | –
